Measurements as given in patent publication US20220220212A1 (RESEARCH FOUNDATION FOR THE STATE UNIVERSITY OF NEW YORK, published 2022).

B1: phage clone 25B (scFv)
scFv: LQSVLTQPPSVSGAPGQKVTISCSGSSSNIGNNYVSWYQQLPGTAPKLLIYGNNKRPSGIPDRFSGSKSGTSATLGITGLQTGDEADYYCATWDDSLSAVVFGGGTKLTVLGEGKSSGSGSESKASQVTLKESGAEVKKPGASVKVSCKASGYTFTNFYIHWVRRAPGQGLEWMGIINPSDGRTTYAQKFQGRVTMTRDTSTSTLYMELTSLRSEDTAVYYCGRGGHYSNYFGQPSTWGQGTLVTVSS
notes: also called 25B-scFv
B2: phage clone 13F (scFv)
scFv: LQAVLTQPSSLSASPGASASLTCILRSDFSVVTQRVYWYQQKPGSPPRYLLRYNSDSDKRLGSGVPSRFSGSKDVSANAASLLISGLQSDDEADYYCVIWHNSAVVFGGGTKLTVLGEGKSSGSGSESKASEVQLLESGAEVKKPGESLKISCKGSGYSFTSYWIGWVRQMPGKGLEWMGIIYPGDSDTRYSPSFQGQVTISADKSISTAYLQWSSLKASDTAMYYCARRPQYYDILTGWHAGWFDPWGQGTLVTVSS
notes: also called 13F-scFv
B3: phage clone 26B (scFv)
scFv: LQSVLTQPPSASGTPGQRVTISCSGSSSNIGSNYVYWYQQLPGTAPKLLIYRNNQRPSGVPDRFSGSKSGTSASLAISGLQSEDEADYYCAAWDDSLNGVVFGGGTELTVLGEGKSSGSGSESKASQVTLKESGAEVKKPGASVKVSCKASGYTFTNFYIHWVRRAPGQGLEWMGIINPSDGRTTYAQKFQGRVTMTRDTSTSTLYMELTSLRSEDTAVYYCGRGGHYSNYFGQPSTWGQGTLVTVSS
notes: also called 26B-scFv
B4: ECL2-scFv (scFv)
scFv: DYKDDDDKLQSVLTQPPSASGTPGQRVTISCSGSSSNIGSHTVNWYQQLPGTAPKLLIYRNNQRPSGVPDRFSGSKSGTSASLAISGLRSEDEADYYCAAWDDSLSGVVFGGGTKLTVLGEGKSSGSGSESKASQVTLKESGAEVKKPGASVKVSCKASGYTFTNFYIHWVRRAPGQGLEWMGIINPSDGRTTYAQKFQGRVTMTRDTSTSTLYMELTSLRSEDTAVYYCGRGGHYSNYFGQPSTWGQGTLVTVSSVEAS
notes: the construct as expressed is not described; also called 4h-scFv

Key:
[1] = target: T1, biotinylated N-terminal domain CCR2 peptide (murine, biotinylated (position not given)); experiment: phage ELISA on the N-terminal peptide
T1 construct: Bought from ABclonal; also called CCR2 N-terminal domain; CCR2 N-terminus
T1 peptide: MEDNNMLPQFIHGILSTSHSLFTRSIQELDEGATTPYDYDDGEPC
Experimental: Nunc MaxiSorp 96-well plates were coated with NeutrAvidin at 5 μg/mL and incubated overnight at 4° C. The plate was thoroughly washed with 0.1% PBS-Tween (PBST), and 5 μg/mL biotinylated N-terminal domain CCR2 peptide ([…] (SEQ ID NO:58); ABclonal, Woburn, Mass.) added and incubated for 1 h at room temperature. The wells were washed with 0.1% PBST and then blocked with casein blocking buffer for 1 h at room temperature. The wells were washed with 0.1% PBST followed by incubation of serially diluted scFv for 1 h at room temperature before being washed five times with 0.1% PBST. Washes were followed by the addition of 100 uL of the respective horse-radish peroxidase (HRP)-linked monoclonal antibody (mAb) for 1 h at room temperature with rocking. An anti-M13 mAb was used to detect phages (#27-9421-01, GE healthcare, Chicago, Ill.) and an anti-flag mAb was used to detect scFv (#A8592, Sigma Aldrich, St. Louis, Mo.). The wells were washed with 0.1% PBST followed by the addition of TMB-ELISA substrate. After 10 min incubation, 2 M H₂SO₄ was added to stop the reaction. The absorbance was measured at 450 nm with a FilterMax F3 & F5 multi-mode microplate reader (Molecular Devices, Sunnyvale, Calif.). A 1:1 binding ratio Hill model was used to fit the binding interaction data.

[2] = target: T2, ECL2 domain of the CCR2 chemokine receptor; experiment: binding assay of FIG. 16A,B on the ECL2 domain (method not given)
T2 construct: also called CCR2 ECL2; 2nd extracellular loop of CCR2
T2 peptide: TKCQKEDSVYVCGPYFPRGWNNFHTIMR

Binder | binding result [1] | Kd [2] [nM]
B1 | binds | –
B2 | binds | –
B3 | binds | –
B4 | – | 5.3
